Experiment [1] deals with paxillin LIM2/3 tandem domain (aa380-499) (human) (UniProt P49023). The experiment can be described thus: NMR titration; 1H-15N HSQC, 250-300 μM 15N-labelled paxillin LIM2/3 (wt or 4A), unlabelled integrin β3 tail added; 298 K, 50 mM Na2HPO4, 150 mM NaCl, 0.1 mM ZnSO4, 1 mM DTT, 5% D2O, pH 7.5; global fit of CSPs.
Experiment [2] concerns the target cytoplasmic tail of human integrin β3 (aa748-788) (human) (UniProt P05106). Put plainly: NMR titration; 1H-15N HSQC, 300 μM 15N-labelled integrin β tail, unlabelled paxillin LIM2/3 added; 298 K, 50 mM Na2HPO4, 150 mM NaCl, 0.1 mM ZnSO4, 1 mM DTT, 5% D2O, pH 6.2; global fit of CSPs to a one site binding model.
Experiment [3] has as its target cytoplasmic tail of human integrin β1 (aa758-798) (human) (UniProt P05556). The description is as above.
Experiment [4] addresses T1, ITGB1 (Homo sapiens (Human), UniProt P05556).
T1 chain: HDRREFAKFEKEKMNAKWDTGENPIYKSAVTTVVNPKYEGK
Put plainly: NMR.

In experiment [5] the target is T2, ITGB3 (Homo sapiens (Human), UniProt P05106).
T2 chain: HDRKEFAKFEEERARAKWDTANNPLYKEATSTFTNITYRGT
Put plainly: NMR.

For orientation: Kd means a measure of binding affinity in units of concentration. Molecule “cytoplasmic tail of human integrin β3 (aa748-788) (from UniProt P05106 748-788) (domain or fragment)” gave an equilibrium dissociation constant (Kd) in experiment [1] of 532 µM.

Turning to “paxillin LIM2/3 tandem domain (aa380-499) (from UniProt P49023-2 380-499) (domain or fragment)”, in experiment [2], the equilibrium dissociation constant (Kd) was 528 µM and the fraction bound at the end of the titration was determined as 70%. The same molecule yielded a Kd in experiment [3] of 52 µM.

B1: paxillin (protein)
chain: SPRCYYCNGPILDKVVTALDRTWHPEHFFCAQCGAFFGPEGFHEKDGKAYCRKDYFDMFAPKCGGCARAILENYISALNTLWHPECFVCRECFTPFVNGSFFEHDGQPYCEVHYHERRGS
In the case of B1, the Kd in experiment [4] is 52 µM; in experiment [5], 528 µM.

Source of the values: PMC11374337 (2024).
